In patent US20040001822A1, “Y1-isolated molecules comprising epitopes containing sulfated moieties, antibodies to such epitopes, and uses thereof” (priority 2000, published 2004):

How the values were obtained:
[1] = system: Glycocalicin (GC); experiment: Western blot with Y1 on enzyme-treated glycocalicin; format: binding, human; conditions: O-Sialo glycoprotein endopeptidase, 30′ at 37° C.
Description: Y1 ligand was further characterized using enzymatic treatments with proteases, glycanases, and […]; Western blotting with Y1, anti-CD42 antibodies, anti-CD162 antibodies and 181, immunoprecipitation using Y1 and anti-CD162 antibodies; FACS analysis using Y1 anti-CD162 antibodies; and sequencing.
The table below summarizes the biochemical experiments preformed to characterize and localize the Y1 binding site on KG-1 cells.
Western Blot Analysis with Y1 on SDS-PAGE Reducing Gels
The nitrocellulose membrane was blocked using 5% skim milk for one hour at room temperature. The membrane was then washed 3 times for 5 minutes each with 0.05% Tween 20 in PBS at room temperature. The membrane was incubated with 5 μg/ml Y1-biotin (or 181-biotin) in 2% skim milk in PBS for one hour at room temperature. The membrane was then washed 3 times for 5 minutes each with cold 0.05% Tween 20 in PBS in the cold room (about 4 to about 10° C.). The membrane was then incubated in the cold room with a 1:1000 dilution of SAV-HRP (streptavidin-HRP) (at a final concentration of […]) in 2% skim milk, 0.05% Tween. The dilution was carried out at room temperature (about 25° C.), then the diluted SAV-HRP was cooled on ice for 10-15 minutes before use. The incubation was carried out for 1 hour with gentle shaking. After the incubation with SAV-HRP, the membrane was washed, as above. […]

[2] = biological target: T1, natural human platelet derived glycocalicin (Homo sapiens, UniProt P07359); experiment: Western blot on natural human platelet derived glycocalicin; format: binding; conditions: semi-purified human platelet derived glycocalicin
T1 construct: glycocalicin (soluble, extracellular fragment of GPIbα); from tissue; host or cells: human platelets
Experimental: (§1) The DNA fragment encoding for glycocalicin (GC, amino acid 1 to amino acid 493 of GPIbα ) was cloned into an IPTG inducible prokaryotic vector cassette. E. coli (BL21 DE3) cells harboring the newly constructed plasmid were grown at 37° C. to O.D. 0.7-0.8, than at 37° C. for 3 hours for in the presence of IPTG for induction.
(§2) SDS-polyacrylamide gel loaded either with semi-purified human platelet derived glycocalicin (“GC”) or with E. coli cell lysates (“total”) derived from induced and non-induced cells were analyzed. Western blot analysis was performed with biotinylated Y1-scfv, polyclonal rabbit anti-human glycocalicin antibody, commercially available mouse anti-human CD42 monoclonal antibody (SZ2 Immunotech, PM640 Serotec, HIP1 Pharmigen, AN51 DAKO), and polyclonal antibody against the N-terminus of GPIbα (Sc-7071, Santa Cruz).
(§3) The DNA fragment encoding the N-terminal soluble part of human platelet GP1b-glycocalicin (GC, amino acid 1 to amino acid 493) was cloned into an IPTG inducible prokaryotic vector cassette. E. coli (BL21 DE3) cells harboring the newly constructed plasmid were grown at 37° C. to O.D. 0.7-0.8, than at 37° C. for 3 hours for in the presence of IPTG for induction. SDS-polyacrylamide gel loaded either with semi-purified human platelet derived GC or with E. coli cell lysates (total protein content) derived from induced and non-induced cells were analyzed. […]

[3] = system: Leukemia Cells; experiment: FACS of leukemia samples: anti-CD162 versus Y1; format: binding, human; conditions: 12 patient samples of Table 11
Experimental: Analysis of binding of scFv Y1 antibodies and anti-CD162 antibodies to diseased cells also illustrates that scFv Y1 has binding characteristics different from those of anti-CD162 antibodies. […] (Table F). Y1 binds to the leukemic cells in 10 of 12 samples. In contrast, anti-CD162 bound only 5 out of 12 samples. […] Thus, it may be concluded that, in leukemic cells, scFv Y1 binds to a ligand other than that recognized by anti-CD162.
Samples provided from hospitals. Patients sample 30 μl/tube. Add 5 μl/tube of CD33-APC (for AML) or CD19-APC (for B-CLL) or CD38-APC (for Multiple Myeloma). Add 5 μl/tube of CD45-PerCp and 5 μl of scFv-Y1 or control scFv-N31 or CD162-PE (KPL1). Incubate tubes 30 minutes at 4° C. with low shaking. Wash by adding 2 ml PBS and spin 5 minutes at 1200 rpm. Discard supernatant.
For a one step assay continue with the lysis step:
Add 500 μl BD Lysine solution diluted 1:10 with ddH2O (300 μl to patient sample). Vortex at high speed and incubate 12 minutes at 4° C. Wash as above. Discard supernatant. And add 500 μl PBS. The samples are read in the FACS using blood sample acquisition setup according to international standards.
For two or more assays: working buffer is PBS+1% BSA+0.05% sodium azide. Incubations and wash as above.
Lysis of the red blood cells is the final step in the assay, followed by resuspension with 500 μl PBS.

[4] = biological target: T2, recombinant bacterial derived glycocalicin (Homo sapiens, UniProt P07359); experiment: Western blot on recombinant glycocalicin expressed in E. coli; format: binding; conditions: E. coli cell lysates
T2 construct: GC, amino acid 1 to amino acid 493 of GPIbα; made in house; host or cells: E. coli BL21 DE3 (total cell lysate loaded on the gel)
Experimental: as §1, §2, §3

B1: Y1 scFv: fully human scFv clone binding platelets and myelogenous leukemia cells, SEQ ID NO: 25 (protein, listed as Homo sapiens)
scFv: MKYLLPTAAAGLLLLAAQPAMAEVQLVESGGGVVRPGGSLRLSCAASGFTFDDYGMSWVRQAPGKGLEWVSGINWNGGSTGYADSVKGRFTISRDNAKNSLYLQMNSLRAEDTAVYYCARMRAPVIWGQGTLVTVSRGGGGSGGGGSGGGGSSELTQDPAVSVALGQTVRITCQGDSLRSYYASWYQQKPGQAPVLVIYGKNNRPSGIPDRFSGSSSGNTASLTITGAQAEDEADYYCNSRDSSGNHVVFGGGTKLTVLGAAAEQKLISEEDLNGAA
For B1, the “Reactivity with Y1” value [1] was “Enhanced”, the “recognition in Western blot” value [2] was “recognized” and the “recognition in Western blot” value ([2]; listed as scFv Y1) was “recognized only the natural human derived GC”. For the same molecule, the “leukemia samples whose leukemic cells are bound” value [3] was 10 of 12 and the “recognition in Western blot” value [4] was “did not recognize”.
